The nature of the data set: soluble on expression in E. coli; label from the status in PepcDB or PDB records.
Take “MGSDKIHHHHHHMIDSSLVLDAETIRNFVKSVNDADSMDKVRAAVSSFAEELRSKSSENGISIREDVLKSILQRIASSHTTELARHYANEVYNMAFISRKLPYSDIDLSRWREYDFVITDSLWLFDKRDYRGSKLGWYWGNFVPQIPRQLILRFSRKDEWVLDPFSGSGTTLIEAKKLGRNSLGIEINEEVCKKSLEILNSIDGDGFSTAISGDSASVNLTKVMEYYGIPEFNLVIMHPPYHDIIKFTDIGGDLSNARDTKEFLSMLGKVTRNVSKYLQKGRFLALVIGDKYSNGEWIPLGFYSMQKVMDQGFRLKSTIVKNFEYTRGKASSSDLWRYRALAGGFYVFKHEYIFVFQKT”: the “soluble on expression in E. coli” value is “not soluble”.

As for “SEAIQTLLDRKLPDEELEQINQACLSVKGVLGVHQLRTRMSGPTRFIQLHLELDDNLRLIEAHYIADKVEDNLLALFPEADVLIHQDPLSVVFGPEKEQKAQDW”, the “soluble on expression in E. coli” value is “not soluble”.

Take “MATRLNISFDSDLLESISSEFDLRAPNKEALRQLVFTLDGDYEPSIMQVLNLATGVGKTYLMAAFVEYLRRQGVGNVVIVTPGKTVQAKTVQNFTPGSPRYITGSVVPPEVVTPQDYSAWVARQNGAAQLSFGHEVPILAFIFNIQQLIAPKSTEGDTHGNTQDAMRRKPRRFDENAGVLFDYLKGLDDLVVIADESHLYGSSAIAFNAALKELDPAATIGLTASVDKKSDHVIYHYPLFRAIQDKYVKAPVLAFRKTGYGTDEASEEQQLRDALQLRSIKQVYYDSFAASENRKHVNAVVFVVCSDVDHATQVTELLRSPEYLGNDDAVLQVDSKHEDELTQRRLNELDRPHSPVLAVVSVNKLKEGWDVRNIAVVVTLRAMASEVLTQQTMGRGLRLPFGHYTGVWQIDQLDIIAHQSFTELLNAENVLHQFGLEEAVADLDKAQVEAAILKAAETATSPRLGTSLTDTGVIQPGDVAAHEAGVWLIGDSSNSDDLQAGIVPVGGENSTRTPSVGVREITDPAPEGGTGWELVSIERNPAFADVTYQFPVTTMTVQQPSIDLSEIGDDTIEQAARRVTSAGDVLLRKEIIAVLGKKLRAEDRESAEVDSVHVDEDDAKNALVKLVLNMSLVPKTEQTARYVAAFLVPKFMQSVMFSGWTVKSLDSARTELLKLIQNYTVETLRSTREVPSIHPKSMPSNGYTLPLGQKVHDQIETREQFVRSQVYGGWFKSLFAEESFDSFTGEYQLARLLNTSPGIVWWHRLHPQDQAFVFYNAKDRYFPDFVAMDVNGVHWIIEGKSERGRDDAQVQAKRKAAEALVRRLVAEDAYADQLWGYLIAYEQDIARADSWEDLKAFASPVNNAL”: the “soluble on expression in E. coli” value is “not soluble”.

Regarding “MQIKAGLIWMNGAFVPQEEAKTSVLSHALHYGTSVFEGIRAYETAKGPAIFRLKEHVKRFYNSAKVLRMEIPFAPEELEEAIKEVVRRNGYRSCYIRPLAWMGAKALGVNPLPNNPAEVMVAAWEWGAYLGEEAVRKGARLITSSWARFPANVMPGKAKVGGNYVNSALAKMEAVAAGADEALLLDEEGYVAEGSGENLFFVRDGVIYALEHSVNLEGITRDSVIRIAKDLGYEVQVVRATRDQLYMADEVFMTGTAAEVTPVSMIDWRPIGKGTAGPVALRLREVYLEAVTGRRPEYEGWLTYVNGQ”, the “soluble on expression in E. coli” value is “soluble”. “MNCRPGCGACCIAISISSPIPGMPRGKPAGVPCVQLRDDMECAIFGRPERPACCSGLRPSDEMCGGDRSHAMTWLARLEQATLPAAENTPHRPPLEHHHHHH”: the “soluble on expression in E. coli” value was “not soluble”. For “MASNEARYVLAEEVDFSSPEEVKNWWNSGTWQAEFGSPDIEWNGEVGNGALQLNVKLPGKSDWEEVRVARKFERLSECEILEYDIYIPNVEGLKGRLRPYAVLNPGWVKIGLDMNNANVESAEIITFGGKEYRRFHVRIEFDRTAGVKELHIGVVGDHLRYDGPIFIDNVRLYKRTGGM”, the “soluble on expression in E. coli” value is on record as “soluble”. As for “MAKDVKPTRKNLMQIEDRIELSERGHDTLEKKRDGLIMEFMDILDQAQDVREDLDGSYERAQRAINMARAMEGDVAVRGAAAALKEHPELTTQSKNIMGVVVPQIESSKVRKSLDERGYGVMGTSARIDEAAEAYEELLENIILAAEVETAMKKMLEEIETTKRRVNALEFKLLPDLYDNQEYIEQKLEEQEREEIFRMKKIKAKKEEEEDALAAEEEAEEEPEAVTADDAAALEHHHHHH”, the “soluble on expression in E. coli” value is on record as “soluble”.

Consider “MTYELAIGDRAYSSWSLRGWLLFDAFGLPVRVRRARLYTDELPALLADFAPARTVPAMKTSAGTVVAESLAIAEELASRHPEAGIWPADPEHRAVARALAAEMHAGFGALRSHCPMNLRVSYEGCDPPEAVQADLARLERIWAEARARCSTEGPWLCGSYSAADVFFAPVAARIAGYGLAVSPEAQAYVAAHLAHPSFRRWRAMGAVDGADQEFYARPYPPRPWPGPAPLPARAVADGVAENDACPYSGAPVTDLLEIEGRIFGFCNPFCRDKTVADPEAWPAFTALLRHREGS”, for which the “soluble on expression in E. coli” value was “not soluble”. In the case of “MGSDKIHHHHHHMGNSVLKMMIDAGPIMRTVSLPRGRHSLHTMPTSTGYEVRSDATYDWDGRKRGQTPFTVLQHTISGAGNLRYENSTYRVTPGQTLLVLVPHNHRYWLEPGGRWEFFWISMNGEEALRIHNAILTAMGPIFNLNQQTVEHLADCSQRLIAGGAETPGRASAIAYEAAMALYDDVFGSHPTLSAEYRTMQHVIDHISANLDQSLSVEQLAAVSGLSRAHFSRVFAASEGMPPAEFVLHKRLKRAVKLLTKGSHLSVKEISTMCGFEEPNYFSKVFRRHFGASPTEFRTTGMYSSILQGGVEAETKPARFHRPDVNE”, the “soluble on expression in E. coli” value is “not soluble”. With “MGSDKIHHHHHHMYLLVYGSLRYGFELNHLVAKSRFVGLGYIEGYEMYDLGNYPGVIKGDGIVWGEVYEIDENLIKLLDEVEDYKGSPDDLYVREKTRVYFDQKRKYYLDNVYFYRYNKEIVKNMEKIEDGDYSAWSGMPIIVNYFAYAENTNERILHQRGVDMILSETPAYTKGYRLIFNIPCKYGYCANLIEDESGIICGYLQKVFLHTLNSLDKAEQHLIKYIREVVKVYDRNGKEYFAYAYVSSYKENRKKPSEEYVKIIREGLMRGWGNECVSTGLYDEPGIS”, the “soluble on expression in E. coli” value is reported as “not soluble”. To “MQVKLGFTEHSFNLIVSSTSMFKNLLASVGIGAAKVDTRLFNNSVIPGGILEGEVYIRGGDVAQDIQDIYLKLATEYQREVDDSTVTEECVMVNYRLLEHLTIQPKEEVVIPFSLNLPDEMPLTFGHIPVYVRTGLDIKSAINPRDRDYLEVRTHPLMQRVLLAIEHLGFHLHKVDCEYTHYFGGAYPFVQELEFRPTGKYRHSLDELEVVFRLTADQLEVLLEIDKRARGWKGWLEEAFDIDERYARLIVKQSDLYETDVEALIDQIIQSHLS” belongs “not soluble”. To “MGSDKIHHHHHHMMIHGFQSSHQDFSFGPWKLTASKTHIMKSADVEKLADELHMPSLPEMMFGDNVLRIQHGSGFGIEFNATDALRCVNNYQGMLKVACAEEWQESRTEGEHSKEVIKPYDWTYTTDYKGTLLGESLKLKVVPTTDHIDTEKLKAREQIKFFEEVLLFEDELHDHGVSSLSVKIRVMPSSFFLLLRFFLRIDGVLIRMNDTRLYHEADKTYMLREYTSRESKIANLMHVPPSLFTEPNEISQYLPIKEAVCEKLVFPERIDPNPVDSQSTPSE” belongs “not soluble”; to “MSLKGKIIEKVISKVKCKSDENYKIGLWVRDSTAGIGTLTFYSDKTKVFGALGHPITDVDTGDIINISRGSLIDSSIVSVNKGIRGNPGELRGIFINENKPIGIVKNNTICGLFGKGYEKFEGLQYNKPMEVAMRNEVKLGPAKILTTIDGSQPKMYAINIEKLFDQSSPNPKSMMIKVTDAELLDKTGGIVQGMSGSPIIQNNKVVGAVTHVLINKPDTGYGVYIEWMLKSAGILEGHHHHHH”, “soluble”; to “MMTDLSTPDLPRMSAAIAEPTSHDPDSGGHFGGPSGWGGRYVPEALMAVIEEVTAAYQKERVSQDFLDDLDRLQANYAGRPSPLYEATRLSQHAGSARIFLKREDLNHTGSHKINNVLGQALLARRMGKTRVIAETGAGQHGVATATACALLGLDCVIYMGGIDTARQALNVARMRLLGAEVVAVQTGSKTLKDAINEAFRDWVANADNTYYCFGTAAGPHPFPTMVRDFQRIIGMEARVQIQGQAGRLPDAVVACVGGGSNAIGIFHAFLDDPGVRLVGFEAAGDGVETGRHAATFTAGSPGAFHGSFSYLLQDEDGQTIESHSISAGLDYPGVGPEHAWLKEAGRVDYRPITDSEAMDAFGLLCRMEGIIPAIESAHAVAGALKLGVELGRGAVIVVNLSGRGDKDVETAAKWFGLLGND”, “soluble”. To “MNDVPHRPQVKTRKALTPLLEIRNLTKSFDGQHAVDDVSLTIYKGEIFALLGASGCGKSTLLRMLAGFEPPSSGQIMLDGVDLAHVPPYQRPINMMFQSYALFPHMTVEQNIAFGLKQDKLPKAEITSRVNEMLGLVHMQEFAKRKPHQLSGGQRQRVALARSLAKRPKLLLLDEPMGALDKKLRDRMQLEVVDILERVGVTCVMVTHDQEEAMTMAGRIAIMNRGKFVQIGEPEEIYEHPTTRYSAEFIGSVNVFEGLLKAREEDGLVIDAPGLVHPLKVDADASVVDNVPVYVALRPEKIMLCESPPADGYNFAVGEVAHIAYLGDLSIYHVRLKSGQMISAQLQNAHRYRKGLPTWGDEVRLCWEADSCVVLTV” belongs “not soluble”. Take “MTENVPLTRPQLRRLLRNARRALTPAQQRQATLGLYRQLAQHPLFRRARHIALYLPNDGEIDPRLLMREAQRRGKCIYLPVLHAWPRTRMVFQRFEQGEKLKPNRFRIPEPIIDRKRQRPIWALDLILLPLVGFDEVGGRLGMGGGFYDRSLAYQARRQTWKKPLLLGLAHECQKVERLAQASWDVPLQGTVSDRGWYLAPRLEHHHHHH”: the “soluble on expression in E. coli” value is on record as “soluble”. With “MDNIKIIVASDSIGETAELVARAGVSQFNPKQCKHEFLRYPYIESFENVDEVIQVAKDTNAIIVYTLIKPEIKKYMISKVNEHALKSVDIMGPLMELLSNSIEETPYYEPGMVHRLDDAYFKKIDAIEFAVKYDDGKDPKGLPKADIVLLGISRTSKTPLSQYLAHKSYKVMNIPIVPEVTPPDGLFNVDPSKCIALKISEEKLNRIRKERLKQLGLGDKARYATEARIQEELDYFEKLVDKIGCPVIDVSDKAIEETANDIIHFIEQNKSKLEHHHHHH”, the “soluble on expression in E. coli” value is “soluble”. In the case of “MIARPTPALGPTPIPRGGGILPRMDRIVIRGAREHNLKNISLELPRGKFIVITGVSGSGKSTLAFDTIYAEGQRRYVESLSSYARQFLGVMDKPEVESIEGLSPAISIDQKTTSHNPRSTVGTVTEIHDYLRLLFARVGQAFCPECGRPIEKQSASEITDRLLKRPPGTRAILMAPLVRGRKGEYRKLFQQLLKEGYARVRVDGVIYLLEEAQGLSLEKYEKHDIDLVIDRVVLKEEERPRIAEAVELALLRGEGLLRVLYPDTGEEELFSEKFACPEHGSVLEELEPRIFSFNSPYGACPACSGLGYRQEFDPELVVNPELSLAEGAILPWSRGRDTGRSYLWDRLRALAEHLGFDLKTPFKDLPEEAKRAVLYGLPEPFEVVFRRGGKETFRVEVRYEGVIPWLEKRYQESDSEGVREALEGFMSLRPCPACGGTRYKREVLSVKVAGRNIAEVSALPVREALAFFQGLEKTLPPFQAQIARPILREIVERLGFLVDVGLDYLTLDRAANTLSGGEAQRIRLATQVGSGLTGVLYVLDEPSIGLHPRDNQRLIRTLKRLRDLGNTLIVVEHDEETMRAADWIVDMGPGAGIHGGEVVAQGTLEDILKSPQSLTGAYLRGEKRIPVPKERRKGNGKWLVLKGARAHNLKNVTLRIPLGRFVAITGPSGSGKSTLVHDVLYAALAQRLMRAKTTPGPYEALEGVEHLDKVIEIDQSPIGRTPRSNPATYTGVFDEIRDLFAKTPEARKRGYGPGRFSFNVKGGRCEACGGDGTVKIEMLFLPDLYVPCEVCKGKRYNKETLEVKLRGKSIADVLDMTVEEALDFFQNVPSIARKLQLMVDVGLGYMKLGQPSPTLSGGEAQRIKLATELGRKATGRTLYILDEPTTGLHFDDVAKLLSVLHRLVDAGNTVVVIEHNLDVVKTADWVIDLGPEGGDRGGEIVAEGTPEEVALTGSPTGAFLARIPEIAARIGVAAD”, the “soluble on expression in E. coli” value was “soluble”.
